Results from patent publication US20230159662A1 (Kyowa Kirin, published 2023).
Substitutions are numbered along the chain they refer to. In names and notes the source's numbering stands. Read-outs that look alike come from different tables or passages of the source.

B1: human IgG1 anti-human CCR4 antibody (KM2160), S298A/E333A/K334A (AAA)/E283L (antibody)
heavy: EVQLVESGGDLMKPGGSLKISCAASGFIFSNYGMSWVRQTPDMRLEWVATISSASTYSYYPDSVKGRFTISRDNAENSLYLQMNSLRSEDTGIYYCGRHSDGNFAFGYWGRGTLVTVSAASTKGPSVFPLAPSSKSTSGGTAALGCLVKDYFPEPVTVSWNSGALTSGVHTFPAVLQSSGLYSLSSVVTVPSSSLGTQTYICNVNHKPSNTKVDKKVEPKSCDKTHTCPPCPAPELLGGPSVFLFPPKPKDTLMISRTPEVTCVVVDVSHEDPEVKFNWYVDGVLVHNAKTKPREEQYNATYRVVSVLTVLHQDWLNGKEYKCKVSNKALPAPIAATISKAKGQPREPQVYTLPPSRDELTKNQVSLTCLVKGFYPSDIAVEWESNGQPENNYKTTPPVLDSDGSFFLYSKLTVDKSRWQQGNVFSCSVMHEALHNHYTQKSLSLSPGK
light: DVLMTQTPLSLPVSLGDQASISCRSSRNIVHINGDTYLEWYLQRPGQSPKLLIYKVSNRFSGVPDRFSGSGSGTDFTLKISRVEAEDLGVYYCFQGSLLPWTFGGGTRLEIRRTVAAPSVFIFPPSDEQLKSGTASVVCLLNNFYPREAKVQWKVDNALQSGNSQESVTEQDSKDSTYSLSSTLTLSKADYEKHKVYACEVTHQGLSSPVTKSFNRGEC
B2: human IgG1 anti-human CCR4 antibody (KM2160), S239E/I332W (antibody)
heavy: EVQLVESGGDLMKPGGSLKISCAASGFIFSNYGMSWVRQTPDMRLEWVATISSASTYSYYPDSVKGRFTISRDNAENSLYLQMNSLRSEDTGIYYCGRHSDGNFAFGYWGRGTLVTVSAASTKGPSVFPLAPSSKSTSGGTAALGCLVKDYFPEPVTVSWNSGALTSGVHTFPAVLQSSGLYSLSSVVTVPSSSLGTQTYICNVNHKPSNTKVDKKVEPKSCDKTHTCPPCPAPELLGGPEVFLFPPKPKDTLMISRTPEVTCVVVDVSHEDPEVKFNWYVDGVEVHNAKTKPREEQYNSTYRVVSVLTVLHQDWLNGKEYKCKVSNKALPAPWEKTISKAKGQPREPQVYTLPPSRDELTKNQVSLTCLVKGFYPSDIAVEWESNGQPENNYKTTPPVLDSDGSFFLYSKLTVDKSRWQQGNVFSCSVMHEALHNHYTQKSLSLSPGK
light: B1 light
B3: human IgG1 anti-human CCR4 antibody (KM2160), S239E/I332A (antibody)
heavy: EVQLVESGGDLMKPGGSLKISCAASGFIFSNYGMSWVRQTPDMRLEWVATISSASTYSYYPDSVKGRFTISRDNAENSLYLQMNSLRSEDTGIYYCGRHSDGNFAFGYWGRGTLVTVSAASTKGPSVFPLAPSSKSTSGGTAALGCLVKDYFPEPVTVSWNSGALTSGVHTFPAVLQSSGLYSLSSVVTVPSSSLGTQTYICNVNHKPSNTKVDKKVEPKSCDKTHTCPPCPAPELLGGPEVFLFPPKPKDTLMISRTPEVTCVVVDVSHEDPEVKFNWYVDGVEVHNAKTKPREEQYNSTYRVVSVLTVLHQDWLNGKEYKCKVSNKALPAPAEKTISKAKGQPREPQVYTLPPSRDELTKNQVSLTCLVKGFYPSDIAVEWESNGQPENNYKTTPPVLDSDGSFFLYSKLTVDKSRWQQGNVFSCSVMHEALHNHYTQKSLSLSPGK
light: B1 light
B4: human IgG1 anti-human CCR4 antibody (KM2160), S239E/K326I (antibody)
heavy: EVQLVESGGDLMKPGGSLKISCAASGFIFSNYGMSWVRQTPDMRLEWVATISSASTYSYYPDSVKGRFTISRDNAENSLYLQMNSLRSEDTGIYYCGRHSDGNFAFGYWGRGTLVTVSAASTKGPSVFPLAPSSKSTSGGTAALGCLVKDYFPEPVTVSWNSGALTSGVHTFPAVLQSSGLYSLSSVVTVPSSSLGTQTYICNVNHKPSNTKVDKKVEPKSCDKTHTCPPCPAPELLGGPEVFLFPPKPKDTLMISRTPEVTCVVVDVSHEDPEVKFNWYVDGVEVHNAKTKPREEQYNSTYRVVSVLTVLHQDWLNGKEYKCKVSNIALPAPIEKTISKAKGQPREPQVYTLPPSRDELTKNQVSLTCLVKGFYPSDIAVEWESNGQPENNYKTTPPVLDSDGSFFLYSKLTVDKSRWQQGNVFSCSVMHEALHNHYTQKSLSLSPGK
light: B1 light
B5: human IgG1 anti-human CCR4 antibody (KM2160), S298A/E333A/K334A (AAA)/A327D (antibody)
heavy: B1 heavy with L285E, A329D
light: B1 light
B6: human IgG1 anti-human CCR4 antibody (KM2160), K288N/A330S/P396L (antibody)
heavy: B1 heavy with L285E, K290N, A300S, A332S, A335E, A336K, P398L
light: B1 light
B7: human IgG1 anti-human CCR4 antibody (KM2160), S239D/K326E (antibody)
heavy: not shown
light: B1 light
B8: human IgG1 anti-human CCR4 antibody (KM2160), S298A/E333A/K334A (AAA)/K248M (antibody)
heavy: B1 heavy with K250M, L285E
light: B1 light
B9: human IgG1 anti-human CCR4 antibody (KM2160), S239D/I332H (antibody)
heavy: not shown
light: B1 light
B10: human IgG1 anti-human CCR4 antibody (KM2160), S239D/I332T (antibody)
heavy: not shown
light: B1 light
B11: human IgG1 anti-human CCR4 antibody (KM2160), S298A/E333A/K334A (AAA)/E258H (antibody)
heavy: B1 heavy with E260H, L285E
light: B1 light
B12: human IgG1 anti-human CCR4 antibody (KM2160), S239E/I332F (antibody)
heavy: not shown
light: B1 light
B13: human IgG1 anti-human CCR4 antibody (KM2160), S239D/I332W (antibody)
heavy: not shown
light: B1 light
B14: human IgG1 anti-human CCR4 antibody (KM2160), S239D/I332D (antibody)
heavy: not shown
light: B1 light
B15: human IgG1 anti-human CCR4 antibody (KM2160), S239E/I332Y (antibody)
heavy: not shown
light: B1 light
B16: human IgG1 anti-human CCR4 antibody (KM2160), printed as S298A/E333A/K334A, CH of SEQ ID NO 120 (antibody)
heavy: B1 heavy with L285E, A300T
light: B1 light
B17: human IgG1 anti-human CCR4 antibody (KM2160), P230A/E233D/I332E (antibody)
heavy: B1 heavy with P232A, E235A, L285E, A300S, I334E, A335E, A336K
light: B1 light
B18: human IgG1 anti-human CCR4 antibody (KM2160), S298A/E333A/K334A (AAA)/D265G (antibody)
heavy: B1 heavy with D267G, L285E
light: B1 light
B19: human IgG1 anti-human CCR4 antibody (KM2160), S298A/E333A/K334A (AAA)/L235T (antibody)
heavy: B1 heavy with L237T, L285E
light: B1 light
B20: human IgG1 anti-human CCR4 antibody (KM2160), S239D/I332F (antibody)
heavy: not shown
light: B1 light
B21: human IgG1 anti-human CCR4 antibody (KM2160), S239D/L326I (as printed) (antibody)
heavy: not shown
light: B1 light
B22: human IgG1 anti-human CCR4 antibody (KM2160), S239E/K326E (antibody)
heavy: not shown
light: B1 light
B23: human IgG1 anti-human CCR4 antibody (KM2160), S239E/I332E, CH of SEQ ID NO 176 (antibody)
heavy: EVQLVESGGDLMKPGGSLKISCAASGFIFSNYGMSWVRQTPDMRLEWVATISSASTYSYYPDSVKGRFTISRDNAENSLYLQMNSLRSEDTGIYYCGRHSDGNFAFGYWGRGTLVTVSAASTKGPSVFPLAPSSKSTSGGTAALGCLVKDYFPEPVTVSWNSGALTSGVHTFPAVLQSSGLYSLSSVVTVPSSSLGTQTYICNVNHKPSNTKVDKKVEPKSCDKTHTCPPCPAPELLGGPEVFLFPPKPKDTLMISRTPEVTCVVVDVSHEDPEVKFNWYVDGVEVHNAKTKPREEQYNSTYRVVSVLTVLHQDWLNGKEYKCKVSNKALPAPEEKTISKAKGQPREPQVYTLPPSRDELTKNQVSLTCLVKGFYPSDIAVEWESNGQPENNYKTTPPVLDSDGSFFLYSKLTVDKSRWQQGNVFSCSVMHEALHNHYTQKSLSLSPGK
light: B1 light
B24: human IgG1 anti-human CCR4 antibody (KM2160), S298A/E333A/K334A (AAA)/F243L (antibody)
heavy: B1 heavy with F245L, L285E
light: B1 light
B25: human IgG1 anti-human CCR4 antibody (KM2160), S298A/E333A/K334A (AAA)/S239D (antibody)
heavy: B1 heavy with S241D, L285E
light: B1 light
B26: human IgG1 anti-human CCR4 antibody (KM2160), S239E/K326T (antibody)
heavy: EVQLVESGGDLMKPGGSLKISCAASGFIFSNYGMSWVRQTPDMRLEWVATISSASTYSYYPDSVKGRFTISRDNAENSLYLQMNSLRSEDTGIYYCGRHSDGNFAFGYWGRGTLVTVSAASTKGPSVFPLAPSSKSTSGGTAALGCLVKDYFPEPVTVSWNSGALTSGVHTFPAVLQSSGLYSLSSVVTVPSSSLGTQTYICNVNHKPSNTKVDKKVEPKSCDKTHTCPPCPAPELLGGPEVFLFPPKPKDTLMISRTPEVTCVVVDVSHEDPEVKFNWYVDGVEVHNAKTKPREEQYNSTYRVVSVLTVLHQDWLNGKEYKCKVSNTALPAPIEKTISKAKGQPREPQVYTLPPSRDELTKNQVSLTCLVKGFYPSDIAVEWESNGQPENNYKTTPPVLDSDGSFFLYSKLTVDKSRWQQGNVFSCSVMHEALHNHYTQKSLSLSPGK
light: B1 light
B27: human IgG1 anti-human CCR4 antibody (KM2160), S239D/K326L (antibody)
heavy: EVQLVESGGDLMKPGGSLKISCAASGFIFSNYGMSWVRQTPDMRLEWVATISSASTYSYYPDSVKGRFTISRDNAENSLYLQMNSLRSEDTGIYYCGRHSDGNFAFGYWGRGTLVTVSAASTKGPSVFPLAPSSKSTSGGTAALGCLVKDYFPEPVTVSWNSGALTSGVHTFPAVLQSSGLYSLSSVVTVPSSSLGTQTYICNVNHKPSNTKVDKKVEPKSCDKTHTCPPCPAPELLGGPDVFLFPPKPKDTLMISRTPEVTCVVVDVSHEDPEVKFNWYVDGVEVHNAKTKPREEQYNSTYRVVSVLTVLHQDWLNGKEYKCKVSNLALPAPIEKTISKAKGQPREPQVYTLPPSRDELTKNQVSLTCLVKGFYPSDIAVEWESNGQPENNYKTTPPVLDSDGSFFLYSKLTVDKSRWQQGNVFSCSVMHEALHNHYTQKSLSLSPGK
light: B1 light
B28: human IgG1 anti-human CCR4 antibody (KM2160), S239E/I332L (antibody)
heavy: not shown
light: B1 light
B29: human IgG1 anti-human CCR4 antibody (KM2160), S239E/I332H (antibody)
heavy: not shown
light: B1 light
B30: human IgG1 anti-human CCR4 antibody (KM2160), printed as S239E/I332E, CH of SEQ ID NO 178 (antibody)
heavy: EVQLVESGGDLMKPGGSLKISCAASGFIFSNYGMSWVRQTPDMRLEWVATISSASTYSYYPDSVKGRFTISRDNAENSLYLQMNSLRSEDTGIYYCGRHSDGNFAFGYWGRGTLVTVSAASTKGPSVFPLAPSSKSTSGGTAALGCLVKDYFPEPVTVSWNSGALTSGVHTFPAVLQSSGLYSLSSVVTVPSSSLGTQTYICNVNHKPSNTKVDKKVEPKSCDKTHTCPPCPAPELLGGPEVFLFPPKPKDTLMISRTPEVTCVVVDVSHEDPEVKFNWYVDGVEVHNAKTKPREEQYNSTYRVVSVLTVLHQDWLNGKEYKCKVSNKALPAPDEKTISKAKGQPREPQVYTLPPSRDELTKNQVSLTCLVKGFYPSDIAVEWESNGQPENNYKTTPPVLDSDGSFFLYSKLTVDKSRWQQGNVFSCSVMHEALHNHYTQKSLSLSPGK
light: B1 light
B31: human IgG1 anti-human CCR4 antibody (KM2160), S298A/E333A/K334A (AAA)/E294W (antibody)
heavy: B1 heavy with L285E, E296W
light: B1 light
B32: human IgG1 anti-human CCR4 antibody (KM2160), S239E (antibody)
heavy: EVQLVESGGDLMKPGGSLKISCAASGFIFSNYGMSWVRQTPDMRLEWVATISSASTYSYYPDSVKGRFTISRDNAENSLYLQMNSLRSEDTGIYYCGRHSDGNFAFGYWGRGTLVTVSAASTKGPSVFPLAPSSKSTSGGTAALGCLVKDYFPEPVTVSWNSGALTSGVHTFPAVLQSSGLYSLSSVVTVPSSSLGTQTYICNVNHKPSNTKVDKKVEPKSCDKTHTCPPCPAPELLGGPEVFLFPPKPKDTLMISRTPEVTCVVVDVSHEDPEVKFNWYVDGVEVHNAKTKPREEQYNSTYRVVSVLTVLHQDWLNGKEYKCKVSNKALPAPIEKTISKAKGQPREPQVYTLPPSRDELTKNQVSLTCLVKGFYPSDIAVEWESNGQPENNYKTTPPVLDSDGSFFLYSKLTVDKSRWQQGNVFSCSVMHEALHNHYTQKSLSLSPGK
light: B1 light
B33: human IgG1 anti-human CCR4 antibody (KM2160), S239E/K326L (antibody)
heavy: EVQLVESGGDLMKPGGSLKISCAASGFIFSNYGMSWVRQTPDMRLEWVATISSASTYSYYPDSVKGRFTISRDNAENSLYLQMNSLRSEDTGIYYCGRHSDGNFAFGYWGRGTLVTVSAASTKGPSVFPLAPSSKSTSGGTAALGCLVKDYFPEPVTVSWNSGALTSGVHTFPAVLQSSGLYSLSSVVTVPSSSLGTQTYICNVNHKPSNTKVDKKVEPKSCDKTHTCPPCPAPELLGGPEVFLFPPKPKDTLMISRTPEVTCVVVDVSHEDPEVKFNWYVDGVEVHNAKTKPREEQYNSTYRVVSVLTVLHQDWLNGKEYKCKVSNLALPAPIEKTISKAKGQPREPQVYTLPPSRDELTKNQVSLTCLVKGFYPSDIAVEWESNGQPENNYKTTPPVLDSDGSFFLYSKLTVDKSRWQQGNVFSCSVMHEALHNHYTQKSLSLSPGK
light: B1 light
B34: human IgG1 anti-human CCR4 antibody (KM2160), S239E/I332T (antibody)
heavy: not shown
light: B1 light
B35: human IgG1 anti-human CCR4 antibody (KM2160), S239D (antibody)
heavy: not shown
light: B1 light
B36: human IgG1 anti-human CCR4 antibody (KM2160), G316D/A378V/D399E (antibody)
heavy: B1 heavy with L285E, A300S, G318D, A335E, A336K, A380V, D401E
light: B1 light
B37: human IgG1 anti-human CCR4 antibody (KM2160), S298A/E333A/K334A (AAA)/Q295T (antibody)
heavy: B1 heavy with L285E, Q297T
light: B1 light
B38: human IgG1 anti-human CCR4 antibody (KM2160), K334E/T359N/T366S (antibody)
heavy: B1 heavy with L285E, A300S, A335E, A336E, T361N, T368S
light: B1 light
B39: human IgG1 anti-human CCR4 antibody (KM2160), S239D/I332L (antibody)
heavy: not shown
light: B1 light
B40: human IgG1 anti-human CCR4 antibody (KM2160), F243L/R292P/Y300L/V305I/P396L (antibody)
heavy: B1 heavy with F245L, L285E, R294P, A300S, Y302L, V307I, A335E, A336K, P398L
light: B1 light
B41: human IgG1 anti-human CCR4 antibody (KM2160), F243L/R292P/Y300L (antibody)
heavy: B1 heavy with F245L, L285E, R294P, A300S, Y302L, A335E, A336K
light: B1 light
B42: human IgG1 anti-human CCR4 antibody (KM2160), S239D/I332Y (antibody)
heavy: not shown
light: B1 light
B43: human IgG1 anti-human CCR4 antibody (KM2160), S298A/E333A/K334A (AAA)/G236S (antibody)
heavy: B1 heavy with G238S, L285E
light: B1 light
B44: human IgG1 anti-human CCR4 antibody (KM2160), S239D/I332A (antibody)
heavy: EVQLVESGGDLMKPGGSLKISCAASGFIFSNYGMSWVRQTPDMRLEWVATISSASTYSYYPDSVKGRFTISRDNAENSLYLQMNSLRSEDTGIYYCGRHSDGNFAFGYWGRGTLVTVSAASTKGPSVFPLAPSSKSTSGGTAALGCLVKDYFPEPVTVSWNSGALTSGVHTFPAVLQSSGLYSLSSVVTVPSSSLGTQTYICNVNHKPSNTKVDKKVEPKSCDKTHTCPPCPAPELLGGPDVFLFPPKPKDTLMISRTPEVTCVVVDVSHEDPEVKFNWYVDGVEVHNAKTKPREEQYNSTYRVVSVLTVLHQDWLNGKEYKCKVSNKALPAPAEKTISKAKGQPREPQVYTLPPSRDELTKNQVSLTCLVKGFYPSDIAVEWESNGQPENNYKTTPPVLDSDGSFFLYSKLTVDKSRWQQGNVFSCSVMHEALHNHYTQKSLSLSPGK
light: B1 light

Columns and labels:
[1] = biological target: T1, human CD16a (Val type) stably expressed on NK-92 cells (NK-92/CD16 transfectant) (human, UniProt P08637 17-254); assay: cell-based or functional assay
T1 sequence (P08637 17-254 F176V): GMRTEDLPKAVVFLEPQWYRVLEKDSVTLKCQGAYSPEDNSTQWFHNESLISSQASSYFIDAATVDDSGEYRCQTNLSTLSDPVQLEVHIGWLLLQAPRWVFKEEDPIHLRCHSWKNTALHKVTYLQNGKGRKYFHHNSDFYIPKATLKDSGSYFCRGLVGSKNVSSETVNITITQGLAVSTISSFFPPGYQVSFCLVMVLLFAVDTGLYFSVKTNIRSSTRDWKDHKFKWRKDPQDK

[2] = biological target: T1, human CD16a (Val type) stably expressed …; assay: cell-based or functional assay; remark: listed apart in the source

Row | Binder | relative ADCC activity (AAA = 100) [1] | relative ADCC activity (AAA = 100) [2]
1 | B1 | 82 relative, AAA at 0.1 µg/mL = 100 | 
2 | B2 |  | 44 relative, AAA at 0.1 µg/mL = 100
3 | B3 |  | 62 relative, AAA at 0.1 µg/mL = 100
4 | B4 |  | 135 relative, AAA at 0.1 µg/mL = 100
5 | B5 | -28 relative, AAA at 0.1 µg/mL = 100 | 
6 | B6 |  | -131 relative, AAA at 0.1 µg/mL = 100
7 | B7 |  | 147 relative, AAA at 0.1 µg/mL = 100
8 | B8 | 165 relative, AAA at 0.1 µg/mL = 100 | 
9 | B9 |  | 84 relative, AAA at 0.1 µg/mL = 100
10 | B10 |  | 72 relative, AAA at 0.1 µg/mL = 100
11 | B11 | 94 relative, AAA at 0.1 µg/mL = 100 | 
12 | B12 |  | 34 relative, AAA at 0.1 µg/mL = 100
13 | B13 |  | 94 relative, AAA at 0.1 µg/mL = 100
14 | B14 |  | 150 relative, AAA at 0.1 µg/mL = 100
15 | B15 |  | 130 relative, AAA at 0.1 µg/mL = 100
16 | B16 | -97 relative, AAA at 0.1 µg/mL = 100 | 
17 | B17 |  | 53 relative, AAA at 0.1 µg/mL = 100
18 | B18 | -89 relative, AAA at 0.1 µg/mL = 100 | 
19 | B19 | -69 relative, AAA at 0.1 µg/mL = 100 | 
20 | B20 |  | 93 relative, AAA at 0.1 µg/mL = 100
21 | B21 |  | 146 relative, AAA at 0.1 µg/mL = 100
22 | B22 |  | 129 relative, AAA at 0.1 µg/mL = 100

Row | Binder | relative ADCC activity (AAA = 100) [1] | relative ADCC activity (AAA = 100) [2]
23 | B23 |  | 153 relative, AAA at 0.1 µg/mL = 100
24 | B24 | 79 relative, AAA at 0.1 µg/mL = 100 | 
25 | B25 | 291 relative, AAA at 0.1 µg/mL = 100 | 
26 | B26 |  | 132 relative, AAA at 0.1 µg/mL = 100
27 | B27 |  | 113 relative, AAA at 0.1 µg/mL = 100
28 | B28 |  | 57 relative, AAA at 0.1 µg/mL = 100
29 | B29 |  | 71 relative, AAA at 0.1 µg/mL = 100
30 | B30 |  | 90 relative, AAA at 0.1 µg/mL = 100
31 | B31 | 171 relative, AAA at 0.1 µg/mL = 100 | 
32 | B32 | 88 relative, AAA at 0.1 µg/mL = 100 | 
33 | B33 |  | 109 relative, AAA at 0.1 µg/mL = 100
34 | B34 |  | 52 relative, AAA at 0.1 µg/mL = 100
35 | B35 | 116 relative, AAA at 0.1 µg/mL = 100 | 
36 | B36 |  | -38 relative, AAA at 0.1 µg/mL = 100
37 | B37 | 4 relative, AAA at 0.1 µg/mL = 100 | 
38 | B38 |  | -110 relative, AAA at 0.1 µg/mL = 100
39 | B39 |  | 82 relative, AAA at 0.1 µg/mL = 100
40 | B40 |  | -9 relative, AAA at 0.1 µg/mL = 100
41 | B41 |  | 3 relative, AAA at 0.1 µg/mL = 100
42 | B42 |  | 123 relative, AAA at 0.1 µg/mL = 100
43 | B43 | -46 relative, AAA at 0.1 µg/mL = 100 | 
44 | B44 |  | 94 relative, AAA at 0.1 µg/mL = 100
